Biological target: cytosolically localized BRD4 (lacks NLS), O60885

B1: BTK-FLAG (Bruton's Tyrosine Kinase, FLAG-tagged, expressed in HEK293T cells and treated with BTK-BRD4 PHICS) (protein)
chain: MAAVILESIFLKRSQQKKKTSPLNFKKRLFLLTVHKLSYYEYDFERGRRGSKKGSIDVEKITCVETVVPEKNPPPERQIPRRGEESSEMEQISIIERFPYPFQVVYDEGPLYVFSPTEELRKRWIHQLKNVIRYNSDLVQKYHPCFWIDGQYLCCSQTAKNAMGCQILENRNGSLKPGSSHRKTKKPLPPTPEEDQILKKPLPPEPAAAPVSTSELKKVVALYDYMPMNANDLQLRKGDEYFILEESNLPWWRARDKNGQEGYIPSNYVTEAEDSIEMYEWYSKHMTRSQAEQLLKQEGKEGGFIVRDSSKAGKYTVSVFAKSTGDPQGVIRHYVVCSTPQSQYYLAEKHLFSTIPELINYHQHNSAGLISRLKYPVSQQNKNAPSTAGLGYGSWEIDPKDLTFLKELGTGQFGVVKYGKWRGQYDVAIKMIKEGSMSEDEFIEEAKVMMNLSHEKLVQLYGVCTKQRPIFIITEYMANGCLLNYLREMRHRFQTQQLLEMCKDVCEAMEYLESKQFLHRDLAARNCLVNDQGVVKVSDFGLSRYVLDDEYTSSVGSKFPVRWSPPEVLMYSKFSSKSDIWAFGVLMWEIYSLGKMPYERFTNSETAEHIAQGLRLYRPHLASEKVYTIMYSCWHEKADERPTFKILLSNILDVMDEES
- BRD4 phosphorylation (pBRD4 immunoblot) [panel B]: clear pBRD4 band in lane PHICS; no visible band in lanes DMSO and iPHICS; total BRD4 alike in all lanes
- BRD4 phosphorylation (pBRD4 immunoblot) [panel C]: strongest pBRD4 band in lane PHICS; weak bands in lanes DMSO and iPHICS; total BRD4 alike in all lanes
- BRD4 phosphorylation (pBRD4 immunoblot) [panel F]: clear pBRD4 band in lane 5; barely visible signal in lanes DMSO and 6; total BRD4 alike in all lanes
- BRD4 phosphorylation (pBRD4 immunoblot) [panel G]: clear pBRD4 band in lane 7; no visible band in lanes DMSO and 8; total BRD4 alike in all lanes
